Measured values as given in FireProtDB (doi:10.1016/0022-2836(91)90566-o).

B1: DNA-Binding protein, P69542 (parent)
chain: MIKVEIKPSQAQFTTRSGVSRQGKPYSLNEQLCYVDLGNEYPVLVKITLDEGQPAYAPGLYTVHLSSFKVGQFGSLMIDRLRLVPAK

Variants of: B1
Details: Enterobacteria phage fd; pH 7; 25 °C; GdnHCl; CD; MOPS 50 mM; NaCl 100 mM; reversible: yes; structure 1VQB; whole UniProt chain shown

Variant | ddG of mutation (higher = less stable) [kcal/mol] | denaturant m value [kcal/mol/M] | denaturant midpoint (higher = more stable) [M] | unfolding free energy [kcal/mol]
MIKVEIKPSQAQFTTRSGVSRQGKPYSLNEQLCYVDLGNEYPVLVKITLDEGQPAYAPGLYTVHLSSLKVGQFGSLMIDRLRLVPAK [F68L] | 4.2 | 3.4 | 1.4 | 4.8
MIKVEIKPSQAQFTTRSGVSRQGKPYSLNEQLCYVDLGNEYPVLVKTTLDEGQPAYAPGLYTVHLSSFKVGQFGSLMIDRLRLVPAK [I47T] | 7.4 | 4.9 | 0.9 | 1.6
MIKVEIKPSQAQFTTRSGVSRQGKPYSLNMQLCYVDLGNEYPVLVKITLDEGQPAYAPGLYTVHLSSFKVGQFGSLMIDRLRLVPAK [E30M] | -0.7 | 3.7 | 2.78 | 9.7
MIKVEIKPSQAQFTTRSGVSRQGKPYSLNEQLSYVDLGNEYPVLVKITLDEGQPAYAPGLYTVHLSSFKVGQFGSLMIDRLRLVPAK [C33S] | 4.2 | 4 | 1.4 | 4.8
MIKVEIKPSQAQFTTRSGVSRQGKPYSLNEQLCYVDLGNEYPVLVKITLHEGQPAYAPGLYTVHLSSFKVGQFGSLMIDRLRLVPAK [D50H] | 1.5 | 3.8 | 2.1 | 7.5
MIKVEIKPSQAQFTTRSGVSRQGKPYSLNEQLCYVDLGNEYPVLVKITLDEGQPAYAPGLYTVHLSSFMVGQFGSLMIDRLRLVPAK [K69M] | -0.2 | 3.1 | 2.7 | 9.2
MIKVEIKPSQAQFTTRSGVSRQGKPYSLNEQLCYVCLGNEYPVLVKITLDEGQPAYAPGLYTVHLSSFKVGQFGSLMIDRLRLVPAK [D36C] | 2 | 3.5 | 2 | 7
MIKVEIKPSQAQFTTRSGVSRQGKPYSLNEQLCYVNLGNEYPVLVKITLDEGQPAYAPGLYTVHLSSFKVGQFGSLMIDRLRLVPAK [D36N] | 1 | 4.2 | 2.2 | 8
MIKVEIKPSQAQFTTRSGVSRQGKPYSLNEQLCYVDLGNEYPVLVKITLDEGQPAYAPGLYTVHLSSFKPGQFGSLMIDRLRLVPAK [V70P] | 5 | 4.4 | 1.3 | 4
MIKVEIKPSQAQFTTRSGVSRQGKPYSLNEQLCYVDLGNEYPVLVKITLDEGQPAYAPGLYTVHLSSFKCGQFGSLMIDRLRLVPAK [V70C] | 3.1 | 4.4 | 1.7 | 5.9
